# Measurements published in paper PMC4288329, “Characterization of the inositol monophosphatase gene family in Arabidopsis” (Frontiers in Plant Science, 2015).
# B1: IMPL2 (AtIMPL2) (Arabidopsis thaliana) (protein)
# chain: LSDTELDRFAAVGNALADASGEVIRKYFRKKFDIVDKDDMSPVTIADQMAEEAMVSIIFQNLPSHAIYGEEKGWRCKEESADYVWVLDPIDGTKSFITGKPVFGTLIALLYKGKPILGLIDQPILKERWIGMNGRRTKLNGEDISTRSCPKLSQAYLYTTSPHLFSEEAEKAYSRVRDKVKVPLYGCDCYAYALLASGFVDLVIESGLKPYDFLALVPVIEGAGGTITDWTGKRFLWEASSSAVATSFNVVAAGDSDIHQQALESLEWH
# notes: plasmid pAtIMPL2H
# B2: IMPL1 (AtIMPL1) (Arabidopsis thaliana) (protein)
# chain: TTGTISPAHLLEVVELAAKTGAEVVMEAVNKPRNITYKGLSDLVTDTDKASEAAILEVVKKNFSDHLILGEEGGIIGDSSSDYLWCIDPLDGTTNFAHGYPSFAVSVGVLYRGNPAAASVVEFVGGPMCWNTRTFSATAGGGALCNGQKIHVSKTDAVERALLITGFGYEHDDAWSTNMELFKEFTDVSRGVRRLGAAAVDMCHVALGIAESYWEYRLKPWDMAAGVLIVEEAGGAVTRMDGGKFSVFDRSVLVSNGVLHPKLLERIAPATENLKSKGIDFSLWFKPEDYHTEL
# notes: plasmid pAtIMPL1H
# Key:
# Test in all cases: malachite green phosphate release assay, Michaelis-Menten fit
# Format in all cases: biochemical, Arabidopsis thaliana
# [1] = substrate: N[C@H](COP(=O)(O)O)Cc1c[nH]cn1; conditions: 50 mM Tris-Cl pH 7.5, 2 mM MgCl2, 22°C in table note (25°C in methods), substrate 0-1 mM
# Text: malachite green phosphate release assay, Michaelis-Menten fit on IMPL2 (AtIMPL2)
# [2] = substrate: O=P(O)(O)O[C@H]1O[C@H](CO)[C@H](O)[C@H](O)[C@H]1O; conditions: 50 mM Tris pH 9, 3 mM MgCl2, 22°C in table note (25°C in methods), substrate 0-1 mM, value approximated
# Text: (§1) malachite green phosphate release assay, Michaelis-Menten fit on IMPL1 (AtIMPL1)
# [3] = substrate: O=P(O)(O)O[C@@H]1[C@H](O)[C@H](O)[C@@H](O)[C@H](O)[C@H]1O; conditions: 50 mM Tris pH 9, 3 mM MgCl2, 22°C in table note (25°C in methods), substrate 0-1 mM, substrate inhibition above 1 mM
# Text: as §1
Protein,Km [1],kcat [1],kcat/Km [1],Km [2],kcat [2],kcat/Km [2],Km [3],kcat [3],kcat/Km [3]
B1,180 ± 5 µM,1.3 ± 0.2 s⁻¹,7900 ± 200 M⁻¹ s⁻¹,–,–,–,–,–,–
B2,–,–,–,450 ± 60 µM,2.4 ± 1.3 s⁻¹,5300 ± 500 M⁻¹ s⁻¹,180 ± 3 µM,0.6 ± 0.1 s⁻¹,3300 ± 100 M⁻¹ s⁻¹
